The target in the experiment is F protein (fusion glycoprotein) of hRSV, Memphis 37 strain (human respiratory syncytial virus, …). Briefly: cell-based or functional assay.

B1: SEQ ID NO: 71 (RSV434), trivalent polypeptide consisting of three anti-hRSV immunoglobulin single variable domains (VHH)
chain: DVQLVESGGGLVQAGGSLSISCAASGGSLSNYVLGWFRQAPGKEREFVAAINWRGDITIGPPNVEGRFTISRDNAKNTGYLQMNSLAPDDTAVYYCGAGTPLNPGAYIYDWSYDYWGRGTQVTVSSGGGGSGGGGSGGGGSEVQLVESGGGLVQAGGSLSISCAASGGSLSNYVLGWFRQAPGKEREFVAAINWRGDITIGPPNVEGRFTISRDNAKNTGYLQMNSLAPDDTAVYYCGAGTPLNPGAYIYDWSYDYWGRGTQVTVSSGGGGSGGGGSGGGGSEVQLVESGGGLVQAGGSLSISCAASGGSLSNYVLGWFRQAPGKEREFVAAINWRGDITIGPPNVEGRFTISRDNAKNTGYLQMNSLAPDDTAVYYCGAGTPLNPGAYIYDWSYDYWGRGTQVTVSS
Regarding B1, the “sensitivity in in vitro neutralization relative to RSV-B 18537” value is around 6 fold.

The values above are taken from patent US20170304566A1 (Ablynx, published 2017).
